{"source": "paper PMC6658569", "test_system": "PurR (Escherichia coli K12?)", "test": "MST", "conditions": "panel assigned by order of figure text (h before i); EMSA: binding buffer 250 mM Tris pH 6.8, 150 mM NaCl, 5 mM EDTA, 10 mM DTT, 50% glycerol; 8% PAGE in 20 mM Tris-borate, 1 mM EDTA pH 8.0, 4 C, 80 V, EB stain …", "data": [{"substance": "kbl promoter (208 bp)", "values": [{"measurement": "Kd", "result": 7.11, "unit": "µM"}]}, {"substance": "glyA promoter (212 bp)", "values": [{"measurement": "Kd", "result": 239, "unit": "µM"}]}]}
